Experimental data reported in patent publication US5352595, “Myod regulatory region” (Fred Hutchinson Cancer Research Center).

Target: MyoD:E12 heterodimer (UniProt P10085;P15806 P10085:1-318,P15806:1-651)
Assay: EMSA

Chain of MyoD:E12 heterodimer (P10085 whole entry, chain 1 of 2): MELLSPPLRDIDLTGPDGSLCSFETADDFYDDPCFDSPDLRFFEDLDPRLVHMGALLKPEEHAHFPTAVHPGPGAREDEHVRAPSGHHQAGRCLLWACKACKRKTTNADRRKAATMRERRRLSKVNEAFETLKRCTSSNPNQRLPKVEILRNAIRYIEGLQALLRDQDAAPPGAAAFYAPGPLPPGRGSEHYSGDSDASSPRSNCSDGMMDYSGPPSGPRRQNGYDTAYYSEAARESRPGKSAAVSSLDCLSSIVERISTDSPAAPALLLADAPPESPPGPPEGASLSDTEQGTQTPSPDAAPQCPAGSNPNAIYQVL
Chain of MyoD:E12 heterodimer (P15806 whole entry, chain 2 of 2): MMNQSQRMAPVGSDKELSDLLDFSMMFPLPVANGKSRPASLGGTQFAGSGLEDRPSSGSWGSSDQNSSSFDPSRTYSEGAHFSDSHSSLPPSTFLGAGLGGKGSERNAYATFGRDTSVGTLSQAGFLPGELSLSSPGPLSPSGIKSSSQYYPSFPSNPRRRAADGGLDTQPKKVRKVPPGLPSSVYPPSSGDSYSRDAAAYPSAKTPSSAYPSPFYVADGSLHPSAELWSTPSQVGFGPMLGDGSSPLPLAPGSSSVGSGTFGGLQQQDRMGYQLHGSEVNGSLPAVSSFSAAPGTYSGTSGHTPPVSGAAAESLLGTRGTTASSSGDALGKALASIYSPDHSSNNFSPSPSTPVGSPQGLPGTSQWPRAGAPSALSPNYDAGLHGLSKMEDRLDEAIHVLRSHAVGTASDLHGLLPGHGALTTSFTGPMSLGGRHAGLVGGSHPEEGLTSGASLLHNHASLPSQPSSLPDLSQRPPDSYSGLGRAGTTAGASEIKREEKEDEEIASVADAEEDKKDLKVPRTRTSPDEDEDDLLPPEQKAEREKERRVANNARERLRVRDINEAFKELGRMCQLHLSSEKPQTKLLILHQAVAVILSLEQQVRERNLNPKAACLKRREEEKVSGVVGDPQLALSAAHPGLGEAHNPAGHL

B1: myoD PRR A site (-190) (dsDNA)
DNA 1: GGCAGCTGCC
DNA 2: GGCAGCTGCC
**Q.** Does B1 bind?
**A.** Result: binds
